Measurements published in the DeepSol protein solubility set.

Experiment: soluble on expression in E. coli; label from the status in PepcDB or PDB records

| Sequence | soluble on expression in E. coli |
| --- | --- |
| MQYKLILNGKTLKGETTTEAVDAATAEKVFKQYANDNGVDGEWTYDDATKTFTVTEGSMAGGAWGRLACYLEFLKKEELKEFQLLLANKAHSRSSSGETPAQPEKTSGMEVASYLVAQYGEQRAWDLALHTWEQMGLRSLCAQAQEGAGHSLEHHHHHH | soluble |
| SRRLRTPLQDLTRAATSLAAGNSRIRVPAGGAGPEVATLAHAFNTMADRLEHTEQVRRQMLSDLAHEMGTPLSVLTAYLDGLQDGVVDWNNANHTIMADQLTRLTRLMEDIDYVSRAQEHRIDLDLAEEGLGD | not soluble |
| MIGCLPMMRSLERHAVILGLLRQQEHVTIEAMAAACDASLQTIRRDLNQLGEDGRVVRYHGGARLADHARSATYEVRSASHVREKVAAGQLLARFIPDGATLFIAGGSTLALAAQELRACEGLTIVTNNLHAAVTLYDKTGFDVCVLGGTMRPASGSMIGEEAVRMIERYSLDFAVIGTCGISPDGALLEYDQSLVPPLLAMISNARRTVLVADGSKFGAKGIVRAAPLSAVNHFVTDRAPEGRAADLLARTGVKVHHPANPNLSSQDAAADGRELEHHHHHH | not soluble |
| MHCPFCFAVDTKVIDSRLVGEGSSVRRRRQCLVCNERFTTFEVAELVMPRVVKSNDVREPFNEEKLRSGMLRALEKRPVSSDDVEMAINHIKSQLRATGEREVPSKMIGNLVMEQLKKLDKVAYIRFASVYRSFEDIKEFGEEIARLED | soluble |
| MGSDKIHHHHHHMSQMSFSDFEYAGKRKQTRRERFLAEMDQVVPWAGLLGLIEPFYPKAGGGRKPYPLETMLRIHLLQNWFSLSDPAMEEALYEITPMRQFAHLTLSAPIPEDTTIMNFRHLLEKHQLAPAILAVINGYLQEKGLSLRQGTIVDATIIHVPSSTKNKDGERDPEMHQTKKGNQYFFGMKAHISADVESGLVHHVHGTAANVADVTQVAELLHGEENAVYADAGYTGVEKREEHENRDVIWQIAARRSTYSKLNKRSLLYKAKRKIEYCKAQTRAKVEHPFRVIKRQFGYVKVRFRGLMKNTAQLTTLFALSNLWMARKRLMGLGELRI | not soluble |
| MAHHHHHHMEKTIITLLPVVEKAPKENMERVLDVFRHYLKRYGADHYIYNAVMQAAAFAKNYEQAEQLFKEMETLGLEPNAQSYVNMMLAAKLCGLPPEKSEAYFKRAVKDGAMQSVMRMDTEFRMWMDQLDRLGSFTASSGYLSVNEEGAKPMPRDMWAIWGWHRSESKFISRRDLIMQQVRARVHSGKELVGTVYTKTRRQPWAKFNGMLRHDYNGPSYRAPTIFPDAPEYTNEAGHKAF | not soluble |
| MAHHHHHHMPTPRETVVAFLTQACCGTIVALHRMGGMEVMLYKEQLVVMLTRYFNSCWNSLLSGDDPYVVESFNMMKHDNPGCVMRYLFSVGTSVLPDEPPQEIARYSPEDTDDLEAARVTISETLQQLLAERIAVDPFQHSCEGLSLSAERTAWSEKGCPPQNFFEIS | soluble |
| MDTISDVQIHWRKKDYLSMSLLDDFGIAETTVKEHSVNDQIIVTLSADHRVRMIIRYEMDESHIPMIKNLVIRAFFIGSQ | soluble |
| MYYADSSPALVGLIALNARLHGIRADVVDFMAASTPAGEQAISHVYLPFSVAGVPSTFLVSM | not soluble |
| MGSDKIHHHHHHMKFFNREKEINKILSIIEGEPNNIYFIYGSLNSGKSTLMREIVVNRLDISKYIPFFIDFRTRNILNVDNFIECLFEVDEKSEIDDFREYAKSLADLLVKGSEEISKYYLGMPIKIPKPFFDKIFNKKDKSADVYQYIEYLFAKLNEKGKKPILIFDELQMIKEITLNGNRKLLWSLFQFLVALTKVQHLCHVFCLSSDSLFIEYVYKTGELEGRADYILVDDFDKQTALKFIDFLAKEILNKKLPKDEKELIYSYVGGKPVLIIKVIDKLRYENLNDILDFMLKDATQKLKYFLNDLDYIKPKVEVGDEVIELKKEDIVKALKLFKDSYEISDSEVAKPIYVYLVKKNILFLNPIEGILKPQSFLIWNAIKRLL | not soluble |
| MGHHHHHHSHMANSAGSMANSAGSMPPLSTIDPSGTRSKNMPIKDNALVMFNGKVYLLAKKGTDVLPSQIDQQNSVSPDTPVRKDTLQTVSSSPVTEISREVVNIVLAKSKSSQMETKSLSNTQLASMANLRAEKNKVEKPSPSTTNPHMNQSSNYLKQSKTLFTNPIFPVGFSTGHNAPRKVTAVIYARKGSVLQSIEKISSSVDATTVTSQQCVFRDQEPKIHNEMASTSDKGAQGRNDKKDSQGRSNKALHLKSDAEFKKIFGLTKDLRVCLTRIPDHLTSGEGFDSFSSLVKSGTYKETEFMVKEGERKQQNFDKKRKAKTNKKMDHIKKRKTENAYNAIINGEANVTGSQLQYFTNFRCVTT | not soluble |
| MGAAMGPALAVDAAQEAPTADNSPAVEAPQTPEEGEQSAQTSQDNPRYESQIVRAGHSAEAEQVGDVSEDTIFEYSEFDIPEGWFVSVDEDSGKVTVSTPPDAQDGDNYTVKVKAVDLDGNVTWSEVTFTVGDPETDNPEIEPLDADAPEVELPAAE | not soluble |
| MGSDKIHHHHHHMSLVINQLSKRIDHHQTLDGISFEIGLGQIVGVVGRNGVGKTTLFRTINGQYLTDHGQVLVDGQEVVDQPEMRTQLCFIDPLANFFKGATIAQIQWYYQAAYPDFDNAKFAQLLDRYHLTSKQKLRHFSKGMFGLFTIILSVATQAPYLFLDEPLDGLDVLIRKNILGILIDEVATGNRSIVIASHNLAELEGVIDRALMLKHGRIVNDYQLEAMRRSARKVQLVYRDKQIPAVVKQLGHIVHVSGRVIVVVFEDYNAEVQAQLATTNPVFQEDLPLSLADLFMANLTDEADFELLS | not soluble |
| MSLEQNPVDLDSLTLVNEDELETSVALDNMARRARNGCNEQLKVLCHRIEYLFESKREVNEHNNPLEPRQLVACFSEGLEKLSLDIKARLIILKLFEREVMAETGYLVSEANKVLIDAGVLPEMKSAPIAPAHKPGSRSLANQGNDNVMPTAGNAGVHSNDQVFGLLQELLVTMRGMQARPGDGASDVASEAPMAVMQNGVPYMNGAPLANAASVHQVNSDDLLGVLNRLQRVERSLGEDEGEERADLKTDLSELLDNEHGEAIHALDQADDDVINLVALLFDFILDDEGLPSDIKALLGRLQIPLLKVAIMDKAFFNNDNHEARLLLNMLARAGSQWDPHLGIQDDLYQRINHAVHRIIDDYEDDASLFSSLLQEFQQFFDSQKTRSDRVEQRVREAEEGKARAEQARREVVTVLDNRMAGRQLPDVVVRLLRQGWQQALYLTWLHEGENSPLWQQQVKVVDAVVWSVLEHRDQDALEKLKTLSPKLLKTLHEGLTKINHDAMETKQLLVKFRDVHHRLLKGLQTERVAVEPELPAQRAQPETAPELPENHFLVKKCSQLAPGQWIEIQDNDEPRRAKLAANIRAGVKIVFTNRRGIKVQEYSAYTLAVALHNGAVKLIDEGALFDRALEAVIGDLRRMQGNEGHHHHHH | not soluble |
| MERIETIPTDKEHLSQDEVIRLASTPCSAPALKRAFLFSCLTALRKSDIKKLTWEEIQPYGSDGVMYVTTRMQKTKDIVHNPISEEALELIGYSPDKRGKVFPDFKDSMTQAPLKNWLKDAGITKHISYHCSRHSFACLQLDAGTSIAVVQRYLGHKNVATTEVYAKISDAQKRASVGLEHHHHHH | soluble |
| MAGQISPTRSALLASKASLKTANGGADLLKRKRDALIGEFFALVKDALAAREQLSSVSKGAYTSLFGAKAWDSPEAVESLSLAGTGDYAVDMQIESIYGVKVPKINIPERAAQADFSPINVGARTIQASNDFGGVLEAIVKVAATETKLRRIGEEIKKTSRRVNALEQVVIPGIHDDIRFIRSVLDQREREAGYTQKKIKAKIEGKNKEAREAAAATSHGSAADAAALEHHHHHH | not soluble |
| MRLTGKQTWVFQNDIYVNATGTAVGPKEAEGPLGKKFDISYGDLHCGEENWELAERRLMSDSIQQAVQKGNIKTSQIDFFLAGDLLNQTVTANYVARKWGIPFLGMFSACATSMETLAVGSAFIDGGFANRVLATVSSHNATAERQFRYPTEYGGQKPGTANSTVTGAGSILISNEKSAIKITSATIGKVQDLGITNPLDMGAAMAPAAAHTIQQHFEDLRRSADDYDLIVTGDLSAVGTPIAKQLLLEEGYDLGHIYNDCGLMIYESSQEEVFAGGSGCACSAVVTYGHLLHEMQKGNLQRIFVVATGALLSPMMMQQKETIPTIAHGVVFERVKGELEHHHHHH | soluble |
| MAHHHHHHMKSATMSATHALRDKWFVSFLPLLTADMVNTDYKGNWQLAAQERTQKLDWITSVEELWSTMNSLPKVHQLGMGSTLIFARNNKEPPSYEAYPNGSRIMINLLKPPTTDAGLELVLAVVMGETAAEKASDGKPVCDVLRIAARPSREHSEQIRVEVWLSDSTRSHAVAEFLAEAMRAKGLAANSYNIAEASFDAAAPGKDKKVLAASTMPSPSSPPMVKD | soluble |
| SMKQDSRFPNLFILDHPLIQHKLTHMRDKDTSTRTFRELLREITLLMGYEITRNLPITTKRVETPLVEIDAPVIAGKKLAIVPVLRAGVGMSDGLLELIPSARVGHIGVYRADDHRPVEYLVRLPDLEDRIFILCDPMVATGYSAAHAIDVLKRRGVPGERLMFLALVAAPEGVQVFQDAHPDVKLYVASLDSHLDDHAYIVPGLGDAGDRLFGTKN | soluble |
| MSLDQVDKALTPKEKAETGVPFYASNQAGIITAQQTYCYIASFDIQTESRQILQDLFVKWTKFADLTTSGGVLRDVDNDMLPPNDTGEADGLGISNFTVTLGYGPTFFEKDGKDRFGVKAKKPKYLEKIPHMAHDSLDEAYSDGDLCIQVCADDQQVAFHGIRNFIRLASGVAVVRWIEEGFLSAPKNETPRNLFGFKDGTANVDHDSNKGYKDVVWAEKDEPEWMRNGSYLGYRKIQMLIEIWDRSSLLDQEDTFGRKKASGAPYHKKHEHDKVDPSKLPADSHVRLAKDTKQQMHRRAYSYTNGIDKSTGTIDAGLLFICFTQNPAKQFLPMLSIMGKMDKLNEYTVPIGSAMFACQGGLAPGEIFGEKLLEGHHHHHH | soluble |
| MGSDKIHHHHHHMGTFFVDFYNEYPDTSYIKIPTNPLDRVIGQDDAVKIAMVAAKQRRHLLLVGPPGVGKSMIAQAMSFYIDRPTEEIRVVHNPQYPERPFVEIKTREEVMAEREEETSTSGIIIDPKDAPTSVAERLGYRCSKCGFYSSPSDAVCPNCNSPKIQMGTQGPFGDVFNVIGAAFGVQNNLDKVTLTRRNGDHDEIIVYERYNDKIRVLDEKTLERRRRLEKKSPSKTIVPIDRNPFVLATGASETELLGDVRHDPYGGHPQLGTLPYERVIAGAVHEAHQGVLFIDEITHLGNLQRYILTAMQEKTFPITGRNPQSAGASVRVDKVPADFILVAACNINDLPYILSPLRSRIVGNGYEILMKTTMKDTDENRMKYLQFISQEITMDGKIPHMTMEAAELIIEEGKKRARIIDKKNNELTLRLRELGGLIRAAGDIAVFKGNKLIEKEDVEEAIKLYVPVEEKITKEYGSMAAAYSSENTTSQKDFYNYNLDDRSYE | not soluble |
| CTEPLGLKDNTIPNKQITASSYYKTWGLSAFSWFPYYARLDNQGKFNAWTAQTNSASEWLQIDLGSQKRVTGIITQGARDFGHIQYVAAYRVAYGDDGVTWTEYKDPGASESKIFPGNMDNNSHKKNIFETPFQARFVRIQPVAWHNRITLRVELLGC | soluble |
